# Test: soluble on expression in E. coli; label from the status in PepcDB or PDB records
row,Sequence,soluble on expression in E. coli
1,MSVEFQFQALVEDTPNEKWKAIFQQLWPGYRAWFLRSGVTGRPTYLECRQALRTYMPELVPLWEQLIELTGGGDVESRFLSLWCPPPYIAGCSQGVWFDPKGQEEPILLRNYDFAPVLLEGNLLNTRWLDQRVIAMSDCLWGALDGVNEAGLSASLSFGGRTVTGTGFGIPLVLRYILELAHTTQDAVNILKRIPVHMTYSVTLLDRKGEWNTVFVSPDRQPEVVKRHAVTNYQNAIEWPQHATATHSAERLTFLEQVLHHATNSHEVLQGLLTKPLYQDAWLRGYGTLYSAIYRPLSQKVEICWPHDYSQQSFEHFTEEQKLILLSVELEHHHHHH,not soluble
2,MSLKRTITPVHEVQTEWVHLHYAESSIFKEVYGFVGTQGTVNLEGVRYTPVGRPSKTLLVFMHPASTLQLLPMPRELARHGAHVLCAGSRYQRNDSALIMENVVVDLGAYIRHAKEVWKYEKVVLVGWSGGGSLSLLYQSQAENPTISTTPAGDPCSIKQAGLMPADAFIFQAAHTGRARMLSEWIDPSVLDENDPDRIDPGLNLYATTCRPPYSADFLAAFRAGQRARLRRRTAWVKETLETLRRKGGQEVERGFVTHRTMADPRFLDPTIEPNDRPIGRCFMGIPETVNNGPVGIARFSTLRAWLSQWSPDDSNADGVTCAKSLTVPFLAIEHSADDAVPQSHVRQVFEAASATDKSMTVLQGATHYFLGQPEMLQQAATICLDWLAERGLHDEGHHHHHH,soluble
3,MHHHHHHSSGVDLGTENLYFQSMVEDHYEMGEELGSGQFAIVRKCRQKGTGKEYAAKFIKKRRLSSSRRGVSREEIEREVNILREIRHPNIITLHDIFENKTDVVLILELVSGGELFDFLAEKESLTEDEATQFLKQILDGVHYLHSKRIAHFDLKPENIMLLDKNVPNPRIKLIDFGIAHKIEAGNEFKNIFGTPEFVAPEIVNYEPLGLEADMWSIGVITYILLSGASPFLGETKQETLTNISAVNYDFDEEYFSNTSELAKDFIRRLLVKDPKRRMTIAQSLEHSWIKAIRRRNVRGEDSG,soluble
4,MDKIRYGIMSTAQIVPRFVAGLRESAQAEVRGIASRRLENAQKMAKELAIPVAYGSYEELCKDETIDIIYIPTYNQGHYSAAKLALSQGKPVLLEKPFTLNAAEAEELFAIAQEQGVFLMEAQKSVFLPITQKVKATIQEGGLGEILWVQSVTAYPNVDHIPWFYSREAGGGALHGSGSYPLQYLQYVLGKEIQEVTGTATYQQGATDSQCNLALKFAEGTLGNIFINVGLKIPSEMTICGTKGQIVIPNFWKTDCAYYTDAQGNTVKWSEQFTSEFTYEINHVNQCLQDKKLTSPVMTKELTIATVKIVESFYQEWFDNE,not soluble
5,GMVEKPQLKFKSPIDNSESHPFIPLLKEKPNALKPLSESLRLVDDDENNPSHYPHPYEYEIDHQEYSPEILQIREEIPSKSWDDSVPIWVDTSTELESMLEDLKNTKEIAVDLEHHDYRSYYGIVCLMQISTRERDYLVDTLKLRENLHILNEVFTNPSIVKVFHGAFMDIIWLQRDLGLYVVGLFDTYHASKAIGLPRHSLAYLLENFANFKTSKKYQLADWRIRPLSKPMTAAARADTHFLLNIYDQLRNKLIESNKLAGVLYESRNVAKRRFEYSKYRPLTPSSEVYSPIEKESPWKILMYQYNIPPEREVLVRELYQWRDLIARRDDESPRFVMPNQLLAALVAYTPTDVIGVVSLTNGVTEHVRQNAKLLANLIRDALRNIKNTNEEATPIPSSETKADGILLET,soluble
6,VKVRYENDKYLIPFASLDANQRMEFDLKDPQGKVILLAGKKLTSRKIKELKENHLEWVEYPMDILLNRHLAEPVMVGKEVLLDMLTQLDKNKLEKIHDLG,not soluble
7,MGSDKIHHHHHHADMDGSQNKETENKEIKIILEAETSSQNIFAPIVFYQSFDFGKDAPCLSEVYDSIVWKSSHSPNSFKVFSHSNYARYVETTFFKWAHVYYSPGTYKTYLLGYKNNEIIYSSDTISIDITNKKDFLAFNWKDVTDSDFTTGYANNLDGYYLSTQTHIHQGVPSVMLYAKNEKYEKGGSMKSKQILYNYINSFFSLPNYTATSDESLRKEFSTIFSFQEENAIPLNIWLTPKAKIVLLRKDFKGLESEYKIYAEPGDLI,not soluble
8,MGSDKIHHHHHHMSNQFMFADETSQQTTKLPTEYWKILIVDDEPEVHAVTKLALNDFNFLGRGLKFYSAFSGEEAKRLIDEHPDAAILLLDVVMETDDAGLQVARYIREEADNHFTRIILRTGQPGQAPERTVIVNYDINDYKSKTELTAQKLFTAVMSSLRSYRDIMSIDQSRHGLEKIIAASANLYALQPMNSFVDGLVQQLSWVIGGAKQTLYATSNEDGSSYKVLAAHGEDSGVCVGQTLRSVIPSKALAELEHVIANHGSYYGDDFVLLYCRSHCRSHGSVLFIGGLSRALTADDHHVLQLFSENVQLAQDNVVCLEDSDQFLARLADQLMLHHASHFNGILEQNSEVRLAYAVAQKVAAEDAETTALAWSLFAQARPLLNCASDAAAAVETTCQQRVARSLRALGHGEHEATQNAHRALIERLERWDGLGLPEGKQGSDIAISTQVLLLTEQLLDWWESGISDSDIAVRLKDERGRYYSPKFLDVVIKSLPELRTI,not soluble
9,MGSDKIHHHHHHMNMFLGEGWQVKPAGGATGEAYIAEQGEQRLFLKRNSSPFLAVLSAEGIVPKLLWTKRLENGDVITAQRWVYGRELKAFEMKEPNVAHLLAKIHHSVELLDMFKRMGNDMLTPQRIIDDLKASMKRHECDDLLFQKGLKFLQTQQEAVNQEQYVVCHCDINHNNWMMSDAGELYLIDWDGATVADPALDLGLLLYSYVPRHEWKTWLANYGLEMSDHLLLRMHWYVVSQTISVMLSNMDRGKHAEAETWQDFLKTLLDDSF,not soluble
10,MFRTITSRLAFSVRQAEETVKPRIAYAQRSGRRIKEKVALMQAKRKEAGETGAPEKPGKFVLKTGKGTRDYGPAQSALRNSVLQTVTETFNRYGAETIDTPVFELRDVLMGKYGEEGGKLVYDLQDQGGELLSLRYDLTVPFARYLAMNKITNITRYQIAKVYRRDQPVMSRGRYREFYQCDFDIAGQYDLMLPEAECLGIVDELLTKLEIGEFFINLNHRLILEGMFAVSGIPAKDFKTICSSVDKLDKTPWEDVEQEMINEKFLTKEQTGKLGELVRFRELNSDLNNLELLEKMSQLPDLGQNDKFKKGAEELKVLIEYLNVDGVTTVRYEPSLARGLDYYTGAIYEAVAPKALEGTAVENSEDTAGQPVGVGSVAAGGRYDGLVKMFDSKANVPCCGVSFGIERLFAIMEARQKVAIRTTQTEVYVASAQKNLVRDRKKLVKMLRSAGIKTEMALKANPKLLTQFQYAEERRIPLAIVIGEQELKDGVVKLRNVVTRDEQTIKLDQLITAVRDTLAAL,not soluble
11,MSLVVVSDVFVSVRGRVMLNVEAMNMTESVGNYVKHRRVPVVLPDAKYTTYFVPAISGESIAHGFQEVLAEVGKKNGLKVCKLCEKGIFLKSTNENVFKESFSSDPPKDDFEFEKTVIENCIVEDVGGFLYAPRAGGNVKRTSNFYTGYMIPVRESIEGAVIEPQLHSRYALGTPFVEGGQGQMIYYVELSSAVYTFSFDLDTRYIGRTTFSYEKAGTEVGKRSERINAALEALKKFLIEFAFGAKKTRFLPVMEWDSLVVAVSDDVWTVPSPYTAGYIDNARKKKEKVNFNTKLFVYPEGGSFEEVVVEAIEEAKERAGKEGHHHHHH,soluble
12,MSIYLTAMKNYLEQQNSLNSSKPKALILVAGATGGAQEGFQALERLRESYEIIVVASQAALDLYGEENLKSLTGTAKIYQGKEFKIYDFLKVVTIVFLPVVSSNLVGKLAHGIYDEPLASLIFHAKLAGKPVIGVVDGALPDGDGFKSRGFTNPPPGLVKLINENIEKLRAQEIYLYKGKTILEKLSPYLGPQTAETSVVSSKTGVTLNKRVITREDLLELANQTITVSQKTIITDLAREYAVQNNIKINFAE,not soluble
13,MDRTLYQKQMLDLVKDSKLATKLENSIFKWTNDYMETNITPPFMFENFYQDKFSDIIKHLNIKNNPYLLEAIKTGKIKPENIAFLKPEEIYPEKFEAILNKRKLEKAIKDNQATTDAFKCPRCKKRKAKIDQKQIRAGDEPMTTFVTCVECGNVQKF,not soluble

# From the DeepSol protein solubility set
